Drawing on the RNAGym collection of RNA variant scans (doi:10.1093/molbev/msab373), this text covers reverse-splicing fitness for 83 variants.

To fix the notation:
B1: Azoarcus group I ribozyme (parent)
chain: GUGCCUUGCGCCGGGAAACCACGCAAGGGAUGGUGUCAAAUUCGGCGAAACCUAAGCGCCCGCCCGGGCGUAUGGCAACGCCGAGCCAAGCUUCGGCGCCUGCGCCGAUGAAGGUGUAGAGACUAGACGGCACCCACCUAAGGCAAACGCUAUGGUGAAGGCAUAGUCCAGGGAGUGGCGAAAGUCACACAAACCGG

Variants of B1 are the subject of this data set. The data set can be described thus: reverse-splicing fitness (ratio to wild type); higher = more active; in vitro selection; Mg2+ level not given. A digest of the protocol: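 An in vitro group I ribozyme library with randomized positions was T7-transcribed and gel-purified. In triplicate, 10 pmol RNA in EPPS pH 7.5 was reacted with 50 pmoles of a 30-nt RNA substrate for 1 h at 37 °C across several added MgCl2 levels (1–48 mM), then stopped with EDTA. Products were reverse transcribed from a substrate-complementary primer, PCR-amplified and sequenced (HiSeq 4000). Fitness is a variant's read proportion after selection over that before, normalised to wild type.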
On to C82G A111C A120G C150U C169G U176C, for which the reverse-splicing fitness turned out to be 0.0187.

As for C82G A111C A120G C150U C169G U176A, the reverse-splicing fitness turned out to be 0.0141.

For C82G A111C A120G C150U C169G U176G, the reverse-splicing fitness was determined as 0.00537.

As for C82G A111C A120G C150U, the reverse-splicing fitness was 0.0121.

With C82G A111C A120G C150G, the reverse-splicing fitness came to 0.00691.

As for C82G A111C A120G C150A, the reverse-splicing fitness was 0.0103.

With C82G A111C A120U A145G U176G, the reverse-splicing fitness worked out at 0.004.

In the case of C82G A111C A120U A145G U176A, the reverse-splicing fitness stood at 0.0112.

For C82G A111C A120U A145G U176C, the reverse-splicing fitness was 0.0203.

On to C82G A111C A120G C150A C169G U176G, for which the reverse-splicing fitness is 0.00569.

With C82G A111C A120G C150A C169G U176C, the reverse-splicing fitness was 0.025.

On to C82G A111C A120G C150A C169G U176A, for which the reverse-splicing fitness is 0.0195.

Take C82G A111C A120U A145C C150G C169A U176A: the reverse-splicing fitness was 0.00295.

C82G A111C A120U A145C C150G C169A U176G: the reverse-splicing fitness amounted to 0.00274.

In the case of C82G A111C A120U A145C C150G C169A U176C, the reverse-splicing fitness came to 0.00252.

With C82G A111C A120U A145U C150U U176G, the reverse-splicing fitness stood at 0.00386.

With C82G A111C A120U A145U C150U U176A, the reverse-splicing fitness worked out at 0.00941.

Take C82G A111C A120U A145U C150U U176C: the reverse-splicing fitness worked out at 0.013.

For C82G A111C A120G C150U C169A U176A, the reverse-splicing fitness is 0.0141.

Consider C82G A111C A120G C150U C169A U176C, for which the reverse-splicing fitness was 0.0135.

As for C82G A111C A120G C150U C169A U176G, the reverse-splicing fitness is 0.00607.

Consider C82G A111C A120U A145C C169A U176A, for which the reverse-splicing fitness worked out at 0.0016.

In the case of C82G A111C A120U A145C C169A U176G, the reverse-splicing fitness was 0.00216.

As to C82G A111C A120U A145C C169A U176C, the reverse-splicing fitness stood at 0.00237.

Turning to C82G A111C A120U A145C C169U U176A, the reverse-splicing fitness came out at 0.00293.

Regarding C82G A111C A120U A145C C169U U176C, the reverse-splicing fitness turned out to be 0.00289.

Turning to C82G A111C A120U A145C C169U U176G, the reverse-splicing fitness is 0.00214.

With C82G A111C A120U A145C C150U C169A U176C, the reverse-splicing fitness is 0.0022.

As for C82G A111C A120U A145C C150U C169A U176G, the reverse-splicing fitness amounted to 0.0025.

Take C82G A111C A120U A145C C150U C169A U176A: the reverse-splicing fitness was 0.00238.

Turning to C82G A111C A120U A145U C150U C169G U176A, the reverse-splicing fitness turned out to be 0.00347.

With C82G A111C A120U A145U C150U C169G U176G, the reverse-splicing fitness stood at 0.00273.

Regarding C82G A111C A120U A145U C150U C169G U176C, the reverse-splicing fitness was determined as 0.00346.

As for C82G A111C A120G A145U U176G, the reverse-splicing fitness amounted to 0.00575.

Take C82G A111C A120G A145U U176C: the reverse-splicing fitness came out at 0.0232.

In the case of C82G A111C A120G A145U U176A, the reverse-splicing fitness was 0.016.

For C82G A111C A120U A145C C150U C169G, the reverse-splicing fitness worked out at 0.00299.

For the variant C82G A111C A120U A145C C150U C169A, the reverse-splicing fitness was 0.00304.

As to C82G A111C A120U A145C C150U C169U, the reverse-splicing fitness was 0.003.

For the variant C82G A111C A120U C150A C169G U176A, the reverse-splicing fitness was determined as 0.00466.

For C82G A111C A120U C150A C169G U176G, the reverse-splicing fitness was 0.0024.

For the variant C82G A111C A120U C150A C169G U176C, the reverse-splicing fitness was determined as 0.00487.

For C82G A111C A120U A145U C150G C169A, the reverse-splicing fitness was 0.00457.

As to C82G A111C A120U A145U C150G C169U, the reverse-splicing fitness worked out at 0.00326.

For C82G A111C A120U A145U C150G C169G, the reverse-splicing fitness came out at 0.00414.

C82G A111C A120U A145C C169G U176A: the reverse-splicing fitness came out at 0.00322.

In the case of C82G A111C A120U A145C C169G U176C, the reverse-splicing fitness amounted to 0.00339.

Turning to C82G A111C A120U A145C C169G U176G, the reverse-splicing fitness was found to be 0.00197.

Take C82G A111C A120G C150G C169A U176C: the reverse-splicing fitness was determined as 0.0102.

Consider C82G A111C A120G C150G C169A U176A, for which the reverse-splicing fitness stood at 0.00915.

C82G A111C A120G C150G C169A U176G: the reverse-splicing fitness came out at 0.00686.

With C82G A111C A120U A145G C150U C169A U176G, the reverse-splicing fitness turned out to be 0.00301.

As to C82G A111C A120U A145G C150U C169A U176A, the reverse-splicing fitness worked out at 0.00776.

Turning to C82G A111C A120U A145G C150U C169A U176C, the reverse-splicing fitness was 0.00436.

Consider C82G A111C A120U A145C C150G C169U, for which the reverse-splicing fitness was 0.00395.

Consider C82G A111C A120U A145C C150G C169G, for which the reverse-splicing fitness was determined as 0.0033.

As for C82G A111C A120U A145C C150G C169A, the reverse-splicing fitness was 0.00373.

For C82G A111C A120G C150U C169U U176A, the reverse-splicing fitness is 0.0146.

C82G A111C A120G C150U C169U U176G: the reverse-splicing fitness was determined as 0.00546.

On to C82G A111C A120G C150U C169U U176C, for which the reverse-splicing fitness is 0.0156.

In the case of C82G A111C A120U A145G C169A U176G, the reverse-splicing fitness worked out at 0.00218.

Turning to C82G A111C A120U A145G C169A U176C, the reverse-splicing fitness is 0.00311.

As for C82G A111C A120U A145G C169A U176A, the reverse-splicing fitness was 0.00424.

For C82G A111C A120U A145U C150U C169A U176C, the reverse-splicing fitness turned out to be 0.00293.

C82G A111C A120U A145U C150U C169A U176A: the reverse-splicing fitness was 0.00282.

Take C82G A111C A120U A145U C150U C169A U176G: the reverse-splicing fitness was found to be 0.00223.

With C82G A111C A120U A145C C150A C169U U176C, the reverse-splicing fitness is 0.00331.

For the variant C82G A111C A120U A145C C150A C169U U176G, the reverse-splicing fitness is 0.00237.

Regarding C82G A111C A120U A145C C150A C169U U176A, the reverse-splicing fitness is 0.00291.

Turning to C82G A111C A120G A145U C150U U176C, the reverse-splicing fitness came out at 0.0179.

In the case of C82G A111C A120G A145U C150U U176G, the reverse-splicing fitness was found to be 0.00613.

As for C82G A111C A120G A145U C150U U176A, the reverse-splicing fitness is 0.0115.

On to C82G A111C A120G A145U C169A, for which the reverse-splicing fitness was found to be 0.00975.

Turning to C82G A111C A120G A145U C169U, the reverse-splicing fitness was 0.0104.

Consider C82G A111C A120G A145U C169G, for which the reverse-splicing fitness came out at 0.0132.

As for C82G A111C A120U C150G C169U U176G, the reverse-splicing fitness came out at 0.00294.

For the variant C82G A111C A120U C150G C169U U176A, the reverse-splicing fitness is 0.00494.

Take C82G A111C A120U C150G C169U U176C: the reverse-splicing fitness was 0.00676.

C82G A111C A120G C169U U176G: the reverse-splicing fitness was determined as 0.00516.

With C82G A111C A120G C169U U176A, the reverse-splicing fitness stood at 0.0181.

Take C82G A111C A120G C169U U176C: the reverse-splicing fitness was 0.0141.

With C82G A111C A120U A145U C150A C169U U176C, the reverse-splicing fitness came to 0.00353.

As for C82G A111C A120U A145U C150A C169U U176A, the reverse-splicing fitness came to 0.00302.
